Experimental data as given in the supplement of paper PMC9112550, “Optimization of the antimicrobial peptide Bac7 by deep mutational scanning” (BMC Biology, 2022).

System: Escherichia coli TOP10
Test: shrunken log2 fold change of peptide-encoding DNA abundance (4.5 h post-induction vs induction); higher = less antimicrobial activity (less host growth inhibition)
Details: time post-induction: 4.5 h; library: site-saturation at positions 5, 18, 19, 20
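Note: peptides expressed intracellularly from a pBAD plasmid library in pooled LB shake-flask culture, induced with 0.3% L-arabinose, DNA abundance read by NGS, three biological replicates, DESeq2 with apeglm shrinkage.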

| Sequence | shrunken log2 fold change |
| --- | --- |
| RRIRMRPPRLPRPRPRPWKRPRP | -0.0605 |
| RRIRPRPPRLPRPRPRPHATPRP | 0.323 |
| RRIRDRPPRLPRPRPRPNQRPRP | -0.264 |
| RRIRERPPRLPRPRPRPGGWPRP | 0.492 |
| RRIRLRPPRLPRPRPRPGAGPRP | 0.448 |
| RRIRNRPPRLPRPRPRPLFCPRP | -0.495 |
| RRIRQRPPRLPRPRPRPEDVPRP | -0.0612 |
| RRIRLRPPRLPRPRPRPFCLPRP | -0.485 |
| RRIRWRPPRLPRPRPRPHMHPRP | -0.36 |
| RRIRGRPPRLPRPRPRPNHMPRP | -0.0194 |
| RRIRERPPRLPRPRPRPKTDPRP | -0.497 |
| RRIRKRPPRLPRPRPRPMRGPRP | 0.874 |
| RRIRIRPPRLPRPRPRPGQWPRP | -0.124 |
| RRIRFRPPRLPRPRPRPTQEPRP | 0.321 |
| RRIRIRPPRLPRPRPRPINMPRP | -0.956 |
| RRIRWRPPRLPRPRPRPKSTPRP | 0.126 |
| RRIRKRPPRLPRPRPRPSFTPRP | -0.272 |
| RRIRMRPPRLPRPRPRPFKRPRP | 0.0293 |
| RRIRRRPPRLPRPRPRPEASPRP | 0.75 |
| RRIRCRPPRLPRPRPRPRWVPRP | 2.6 |
| RRIRIRPPRLPRPRPRPYFQPRP | -0.511 |
| RRIRLRPPRLPRPRPRPADYPRP | -0.0944 |
| RRIRIRPPRLPRPRPRPHERPRP | -0.169 |
| RRIRARPPRLPRPRPRPPEKPRP | 0.611 |
| RRIRLRPPRLPRPRPRPHCVPRP | -0.068 |

| Sequence | shrunken log2 fold change |
| --- | --- |
| RRIRVRPPRLPRPRPRPVVWPRP | 0.385 |
| RRIRARPPRLPRPRPRPITTPRP | 0.1 |
| RRIRTRPPRLPRPRPRPYQWPRP | -0.216 |
| RRIRERPPRLPRPRPRPKYTPRP | -0.297 |
| RRIRFRPPRLPRPRPRPIFEPRP | -0.0328 |
| RRIRLRPPRLPRPRPRPGMWPRP | 0.164 |
| RRIRWRPPRLPRPRPRPSEEPRP | 0.129 |
| RRIRKRPPRLPRPRPRPYPLPRP | -0.095 |
| RRIRPRPPRLPRPRPRPSKDPRP | -0.451 |
| RRIRPRPPRLPRPRPRPRKMPRP | 0.0337 |
| RRIRTRPPRLPRPRPRPKTNPRP | -0.157 |
| RRIRYRPPRLPRPRPRPTGFPRP | -0.0281 |
| RRIRARPPRLPRPRPRPKPKPRP | 0.936 |
| RRIRSRPPRLPRPRPRPHAKPRP | -0.288 |
| RRIRARPPRLPRPRPRPQYRPRP | -0.208 |
| RRIRTRPPRLPRPRPRPCADPRP | -0.0062 |
| RRIRGRPPRLPRPRPRPTCCPRP | 1.2 |
| RRIRWRPPRLPRPRPRPAVCPRP | 0.803 |
| RRIRNRPPRLPRPRPRPQYNPRP | -0.674 |
| RRIRARPPRLPRPRPRPGVRPRP | 0.797 |
| RRIRHRPPRLPRPRPRPCPVPRP | -0.0628 |
| RRIRQRPPRLPRPRPRPPKGPRP | 0.021 |
| RRIRLRPPRLPRPRPRPQMDPRP | -0.16 |
| RRIRWRPPRLPRPRPRPPKSPRP | 0.789 |
| RRIRPRPPRLPRPRPRPYNYPRP | -0.446 |

| Sequence | shrunken log2 fold change |
| --- | --- |
| RRIRWRPPRLPRPRPRPGPRPRP | 0.514 |
| RRIRIRPPRLPRPRPRPNWIPRP | -0.565 |
| RRIRCRPPRLPRPRPRPQCLPRP | -0.442 |
| RRIRYRPPRLPRPRPRPIMPPRP | -0.948 |
| RRIRQRPPRLPRPRPRPCYMPRP | -0.832 |
| RRIRPRPPRLPRPRPRPFREPRP | 0.261 |
| RRIRYRPPRLPRPRPRPWSVPRP | -0.554 |
| RRIRRRPPRLPRPRPRPESWPRP | 1.12 |
| RRIRVRPPRLPRPRPRPPGFPRP | 0.842 |
| RRIRGRPPRLPRPRPRPVILPRP | -0.33 |
| RRIRYRPPRLPRPRPRPHVCPRP | -0.358 |
| RRIRARPPRLPRPRPRPDFRPRP | 0.0149 |
| RRIRRRPPRLPRPRPRPESHPRP | 0.589 |
| RRIRLRPPRLPRPRPRPYKPPRP | -0.789 |
| RRIRTRPPRLPRPRPRPEICPRP | -0.0438 |
| RRIRIRPPRLPRPRPRPDSEPRP | 0.0636 |
| RRIRLRPPRLPRPRPRPLKNPRP | -0.295 |
| RRIRGRPPRLPRPRPRPYSYPRP | -0.0264 |
| RRIRHRPPRLPRPRPRPHLWPRP | -0.0776 |
| RRIRMRPPRLPRPRPRPFEVPRP | -0.0748 |
| RRIRTRPPRLPRPRPRPHNCPRP | -0.113 |
| RRIRPRPPRLPRPRPRPRQIPRP | -0.0965 |
| RRIRVRPPRLPRPRPRPGKIPRP | -0.346 |
| RRIRWRPPRLPRPRPRPFDHPRP | 0.124 |
| RRIRHRPPRLPRPRPRPAEVPRP | -0.0107 |

| Sequence | shrunken log2 fold change |
| --- | --- |
| RRIRMRPPRLPRPRPRPFVCPRP | 0.137 |
| RRIRVRPPRLPRPRPRPQCHPRP | -0.0451 |
| RRIRYRPPRLPRPRPRPAKTPRP | -0.00829 |
| RRIRRRPPRLPRPRPRPYGAPRP | -0.171 |
| RRIRVRPPRLPRPRPRPNVSPRP | -0.0331 |
| RRIRFRPPRLPRPRPRPFCKPRP | -0.374 |
| RRIRRRPPRLPRPRPRPNQAPRP | 0.212 |
| RRIRSRPPRLPRPRPRPQNSPRP | -0.207 |
| RRIRTRPPRLPRPRPRPYEAPRP | -0.966 |
| RRIRWRPPRLPRPRPRPEWCPRP | 0.386 |
| RRIRHRPPRLPRPRPRPGYHPRP | -0.126 |
| RRIRKRPPRLPRPRPRPRYNPRP | -0.312 |
| RRIRQRPPRLPRPRPRPCWRPRP | -0.0087 |
| RRIRGRPPRLPRPRPRPETDPRP | 1.34 |
| RRIRTRPPRLPRPRPRPSHLPRP | -0.411 |
| RRIRGRPPRLPRPRPRPWSMPRP | 0.0583 |
| RRIRDRPPRLPRPRPRPHEEPRP | 0.175 |
| RRIRGRPPRLPRPRPRPSVMPRP | 0.107 |
| RRIRGRPPRLPRPRPRPHTIPRP | 0.151 |
| RRIRLRPPRLPRPRPRPQGGPRP | 0.0226 |
| RRIRHRPPRLPRPRPRPVNRPRP | -0.26 |
| RRIRGRPPRLPRPRPRPWQAPRP | 0.00236 |
| RRIRKRPPRLPRPRPRPIVDPRP | 0.234 |
| RRIRCRPPRLPRPRPRPYDAPRP | -0.334 |
| RRIRTRPPRLPRPRPRPRDEPRP | 0.146 |

| Sequence | shrunken log2 fold change |
| --- | --- |
| RRIRCRPPRLPRPRPRPYSVPRP | -0.0508 |
| RRIRPRPPRLPRPRPRPSEEPRP | 0.591 |
| RRIRVRPPRLPRPRPRPPCAPRP | 0.238 |
| RRIRQRPPRLPRPRPRPHHIPRP | -0.764 |
| RRIRFRPPRLPRPRPRPFYCPRP | -0.781 |
| RRIRCRPPRLPRPRPRPMFAPRP | 0.186 |
| RRIRKRPPRLPRPRPRPVLEPRP | 0.475 |
| RRIRSRPPRLPRPRPRPENPPRP | -0.143 |
| RRIRHRPPRLPRPRPRPHVQPRP | -0.128 |
| RRIRPRPPRLPRPRPRPLMYPRP | -0.318 |
| RRIRPRPPRLPRPRPRPYWLPRP | -0.377 |
| RRIRQRPPRLPRPRPRPGCAPRP | 0.507 |
| RRIRRRPPRLPRPRPRPQHKPRP | 0.0372 |
| RRIRARPPRLPRPRPRPPPAPRP | 1.25 |
| RRIRLRPPRLPRPRPRPGMTPRP | 0.00528 |
| RRIRPRPPRLPRPRPRPFGCPRP | -0.144 |
| RRIRCRPPRLPRPRPRPSNSPRP | -0.644 |
| RRIRGRPPRLPRPRPRPVYGPRP | 0.0598 |
| RRIRWRPPRLPRPRPRPDWAPRP | -0.107 |
| RRIRTRPPRLPRPRPRPQPMPRP | 0.267 |
| RRIRWRPPRLPRPRPRPYTQPRP | 0.167 |
| RRIRERPPRLPRPRPRPTIPPRP | -0.475 |
| RRIRERPPRLPRPRPRPMGEPRP | -0.00192 |
| RRIRSRPPRLPRPRPRPTWLPRP | 0.455 |
| RRIRRRPPRLPRPRPRPNELPRP | 0.457 |

| Sequence | shrunken log2 fold change |
| --- | --- |
| RRIRWRPPRLPRPRPRPPTHPRP | 0.469 |
| RRIRGRPPRLPRPRPRPILMPRP | -0.05 |
| RRIRKRPPRLPRPRPRPYETPRP | 0.00149 |
| RRIRSRPPRLPRPRPRPYCPPRP | -0.802 |
| RRIRKRPPRLPRPRPRPPNGPRP | 0.189 |
| RRIRDRPPRLPRPRPRPFGWPRP | 0.903 |
| RRIRSRPPRLPRPRPRPYKVPRP | -0.0179 |
| RRIRYRPPRLPRPRPRPPCWPRP | 0.263 |
| RRIRYRPPRLPRPRPRPPYYPRP | -0.214 |
| RRIRYRPPRLPRPRPRPLQVPRP | -0.0974 |
| RRIRNRPPRLPRPRPRPPWSPRP | -0.294 |
| RRIRLRPPRLPRPRPRPSLFPRP | -0.373 |
| RRIRPRPPRLPRPRPRPIIKPRP | -0.417 |
| RRIRFRPPRLPRPRPRPNPWPRP | -0.0447 |
| RRIRTRPPRLPRPRPRPKTLPRP | 0.0791 |
| RRIRTRPPRLPRPRPRPIEKPRP | -0.478 |
| RRIRSRPPRLPRPRPRPLYRPRP | -0.346 |
| RRIRYRPPRLPRPRPRPQPTPRP | 0.0156 |
| RRIRKRPPRLPRPRPRPLVIPRP | -0.0927 |
| RRIRLRPPRLPRPRPRPIYPPRP | -0.134 |
| RRIRVRPPRLPRPRPRPQWYPRP | -0.327 |
| RRIRMRPPRLPRPRPRPNCQPRP | 0.356 |
| RRIRSRPPRLPRPRPRPMTKPRP | 0.0651 |
| RRIRWRPPRLPRPRPRPFIHPRP | -0.286 |
| RRIRTRPPRLPRPRPRPMVMPRP | -0.0384 |
